Numbered stars: 1 amine (or outer) side, 2 acyl side, 3 side chain; on linkers, the order of the positions; unused ones are H or OH. Square brackets hold non-standard residues; d marks the D form. Side chains are listed from the residue outwards. Ends that are not written are not given here. * marks the point of attachment. 40K‑TE PEG = 40 kDa PEG covalently bound via thioether, formed by reaction of the free thiol of the peptide (Cys side chain) with an iodoacetic-functionalized PEG; γGlu = O=C(O)[C@H](CCC(=O)[*:2])N[*:1]; Palmitoyl = CCCCCCCCCCCCCCCC(=O)*; Orn = NCCC[C@H](N)C(=O)O; Aib = CC(C)(N)C(=O)O
Columns and labels:
Test in all cases: cell-based or functional assay
glucagon receptor = glucagon receptor (UniProt P47871 26-477, limits assumed)
GIP receptor = biological target: T1, GIP receptor (UniProt P48546 22-466)
T1 sequence (looked up): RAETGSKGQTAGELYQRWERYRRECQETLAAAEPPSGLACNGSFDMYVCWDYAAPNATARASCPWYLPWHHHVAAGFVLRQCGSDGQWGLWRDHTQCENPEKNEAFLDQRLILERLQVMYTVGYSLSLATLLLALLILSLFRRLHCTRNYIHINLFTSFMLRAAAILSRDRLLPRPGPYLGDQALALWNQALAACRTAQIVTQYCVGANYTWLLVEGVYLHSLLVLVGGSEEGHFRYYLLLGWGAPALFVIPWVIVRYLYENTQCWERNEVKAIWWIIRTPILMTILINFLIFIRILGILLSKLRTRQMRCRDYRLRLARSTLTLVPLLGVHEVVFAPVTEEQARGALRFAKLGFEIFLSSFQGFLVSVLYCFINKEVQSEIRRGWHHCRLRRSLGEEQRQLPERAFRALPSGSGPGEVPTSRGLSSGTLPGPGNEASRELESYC

GLP-1 receptor = GLP-1 receptor (UniProt P43220 24-463, limits assumed)

glucagon receptor, sequence (P47871 26-477 limits assumed): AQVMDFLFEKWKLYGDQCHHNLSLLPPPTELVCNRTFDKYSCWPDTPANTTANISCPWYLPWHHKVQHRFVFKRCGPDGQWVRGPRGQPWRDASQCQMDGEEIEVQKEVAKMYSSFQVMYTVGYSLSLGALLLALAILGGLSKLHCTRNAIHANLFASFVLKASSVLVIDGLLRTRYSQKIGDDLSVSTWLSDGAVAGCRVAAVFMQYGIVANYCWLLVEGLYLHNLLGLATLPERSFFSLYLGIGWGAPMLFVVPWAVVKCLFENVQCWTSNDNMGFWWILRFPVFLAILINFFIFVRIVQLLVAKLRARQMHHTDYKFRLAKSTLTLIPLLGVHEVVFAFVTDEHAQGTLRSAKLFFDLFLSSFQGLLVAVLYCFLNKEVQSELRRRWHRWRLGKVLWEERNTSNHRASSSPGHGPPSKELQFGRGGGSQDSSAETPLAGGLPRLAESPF

B1: peptide of SEQ ID NO: 33 (peptide)
peptide: H[Aib]QGTFTSDK([γGlu-γGlu-Palmitoyl])SKYLD[Aib]RAAQDFVQWLM[Orn]T[Orn]E-OH
modifications: N-terminus assumed
SMILES: CCCCCCCCCCCCCCCC(=O)N[C@@H](CCC(=O)N[C@@H](CCC(=O)NCCCC[C@H](NC(=O)[C@H](CC(=O)O)NC(=O)[C@H](CO)NC(=O)[C@@H](NC(=O)[C@H](Cc1ccccc1)NC(=O)[C@@H](NC(=O)CNC(=O)[C@H](CCC(N)=O)NC(=O)C(C)(C)NC(=O)[C@@H](N)Cc1c[nH]cn1)[C@@H](C)O)[C@@H](C)O)C(=O)N[C@@H](CO)C(=O)N[C@@H](CCCCN)C(=O)N[C@@H](Cc1ccc(O)cc1)C(=O)N[C@@H](CC(C)C)C(=O)N[C@@H](CC(=O)O)C(=O)NC(C)(C)C(=O)N[C@@H](CCCNC(=N)N)C(=O)N[C@@H](C)C(=O)N[C@@H](C)C(=O)N[C@@H](CCC(N)=O)C(=O)N[C@@H](CC(=O)O)C(=O)N[C@@H](Cc1ccccc1)C(=O)N[C@H](C(=O)N[C@@H](CCC(N)=O)C(=O)N[C@@H](Cc1c[nH]c2ccccc12)C(=O)N[C@@H](CC(C)C)C(=O)N[C@@H](CCSC)C(=O)N[C@@H](CCCN)C(=O)N[C@H](C(=O)N[C@@H](CCCN)C(=O)N[C@@H](CCC(=O)O)C(=O)O)[C@@H](C)O)C(C)C)C(=O)O)C(=O)O
EC50 (nM) at glucagon receptor (glucagon receptor): 0.023 nM | EC50 (nM) at GIP receptor (GIP receptor): 3.96 nM | EC50 (nM) at GLP-1 receptor (GLP-1 receptor): 0.019 nM

H[Aib]QGTFTSDYSKYLDEKRA[Aib]EFVC(40K‑TE PEG)WLMDT-NH2 [peptide of SEQ ID NO: 15]
EC50 (nM) at glucagon receptor (glucagon receptor): 1.1 nM | EC50 (nM) at GIP receptor (GIP receptor): 316 nM | EC50 (nM) at GLP-1 receptor (GLP-1 receptor): 0.071 nM

B2: peptide of SEQ ID NO: 36 (peptide)
peptide: H[Aib]QGTFTSDK([γGlu-Palmitoyl])SKYLD[Aib]RAAQDFVQWLKDGRG-NH2
modifications: N-terminus assumed
SMILES: CCCCCCCCCCCCCCCC(=O)N[C@@H](CCC(=O)NCCCC[C@H](NC(=O)[C@H](CC(=O)O)NC(=O)[C@H](CO)NC(=O)[C@@H](NC(=O)[C@H](Cc1ccccc1)NC(=O)[C@@H](NC(=O)CNC(=O)[C@H](CCC(N)=O)NC(=O)C(C)(C)NC(=O)[C@@H](N)Cc1c[nH]cn1)[C@@H](C)O)[C@@H](C)O)C(=O)N[C@@H](CO)C(=O)N[C@@H](CCCCN)C(=O)N[C@@H](Cc1ccc(O)cc1)C(=O)N[C@@H](CC(C)C)C(=O)N[C@@H](CC(=O)O)C(=O)NC(C)(C)C(=O)N[C@@H](CCCNC(=N)N)C(=O)N[C@@H](C)C(=O)N[C@@H](C)C(=O)N[C@@H](CCC(N)=O)C(=O)N[C@@H](CC(=O)O)C(=O)N[C@@H](Cc1ccccc1)C(=O)N[C@H](C(=O)N[C@@H](CCC(N)=O)C(=O)N[C@@H](Cc1c[nH]c2ccccc12)C(=O)N[C@@H](CC(C)C)C(=O)N[C@@H](CCCCN)C(=O)N[C@@H](CC(=O)O)C(=O)NCC(=O)N[C@@H](CCCNC(=N)N)C(=O)NCC(N)=O)C(C)C)C(=O)O
EC50 (nM) at glucagon receptor (glucagon receptor): 0.028 nM | EC50 (nM) at GIP receptor (GIP receptor): 0.47 nM | EC50 (nM) at GLP-1 receptor (GLP-1 receptor): 0.003 nM

H[Aib]QGTFTSDYSKYLDERRA[Aib]EFVC(40K‑TE PEG)WLLDGGPSSGAPPPS-NH2 [peptide of SEQ ID NO: 35]
EC50 (nM) at glucagon receptor (glucagon receptor): 1.18 nM | EC50 (nM) at GIP receptor (GIP receptor): 16.1 nM | EC50 (nM) at GLP-1 receptor (GLP-1 receptor): 0.085 nM

B3: peptide of SEQ ID NO: 37 (peptide)
peptide: H[Aib]QGTFTSDK([γGlu-γGlu-Palmitoyl])SKYLD[Aib]RAAQDFVQWLMKTK[dE]-OH
modifications: N-terminus assumed
SMILES: CCCCCCCCCCCCCCCC(=O)N[C@@H](CCC(=O)N[C@@H](CCC(=O)NCCCC[C@H](NC(=O)[C@H](CC(=O)O)NC(=O)[C@H](CO)NC(=O)[C@@H](NC(=O)[C@H](Cc1ccccc1)NC(=O)[C@@H](NC(=O)CNC(=O)[C@H](CCC(N)=O)NC(=O)C(C)(C)NC(=O)[C@@H](N)Cc1c[nH]cn1)[C@@H](C)O)[C@@H](C)O)C(=O)N[C@@H](CO)C(=O)N[C@@H](CCCCN)C(=O)N[C@@H](Cc1ccc(O)cc1)C(=O)N[C@@H](CC(C)C)C(=O)N[C@@H](CC(=O)O)C(=O)NC(C)(C)C(=O)N[C@@H](CCCNC(=N)N)C(=O)N[C@@H](C)C(=O)N[C@@H](C)C(=O)N[C@@H](CCC(N)=O)C(=O)N[C@@H](CC(=O)O)C(=O)N[C@@H](Cc1ccccc1)C(=O)N[C@H](C(=O)N[C@@H](CCC(N)=O)C(=O)N[C@@H](Cc1c[nH]c2ccccc12)C(=O)N[C@@H](CC(C)C)C(=O)N[C@@H](CCSC)C(=O)N[C@@H](CCCCN)C(=O)N[C@H](C(=O)N[C@@H](CCCCN)C(=O)N[C@H](CCC(=O)O)C(=O)O)[C@@H](C)O)C(C)C)C(=O)O)C(=O)O
EC50 (nM) at glucagon receptor (glucagon receptor): 0.018 nM | EC50 (nM) at GIP receptor (GIP receptor): 3.3 nM | EC50 (nM) at GLP-1 receptor (GLP-1 receptor): 0.016 nM

— patent US20140206607A1 (INDIANA UNIVERSITY RESEARCH AND TECHNOLOGY, published 2014)
